According to paper PMC6637311, “Glyceraldehyde-3-Phosphate Dehydrogenase of Babesia microti Is a Plasminogen- and Actin-Binding Protein” (Frontiers in Veterinary Science, 2019):

Tested on: O=C[C@H](O)COP(=O)(O)O
Assay: purified protein
Details: 0.5 mM NAD+, 50 mM glycine, 50 mM KH2PO4, 5 mM EDTA, pH 9.5, 25 °C

rBmGAPDH (Babesia microti strain RI)
Km: 583 µM
